Measurements as given in the supplement of paper PMC10567573.

B1: DCAF4 (parent)
chain: DSHILLCLMGLAETPGCATLLPAS
B2: TCAP (parent)
chain: YQRVLPLPIFTPAKMGATKEERED

Variants of: B1
Assay: protein stability index of a GFP-peptide fusion (GPS, HEK-293T) (PSI 1-6); higher = more stable
Details: c terminus: a fixed tail appended
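Further: lentivirally expressed fusions sorted by FACS into six bins by GFP to DsRed ratio, PSI derived from sequencing read proportions per bin multiplied by bin number.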

Protein stability index: each site, then its substitutions
L11: R 2.05, G 1.6, Q 1.66, T 2.7
T14: R 2.05
A18: M 3.66, K 2.82, P 2.65, L 3.23, D 2.39, G 1.11
L6: N 1.75, D 2.22
C17: K 1.83, I 2.04, G 3.08, D 1.47
L21: T 2.04, S 1.65, A 3.11
H3: E 2.27, C 1.61
S24: A 1.39, R 2.1, D 1.92
I4: L 2.96, Q 2.13, E 1.99
T19: I 2.58, L 2.15, M 3.1
P22: G 2.29
L5: V 2.28, K 2.12, H 1.8, A 1.77
L20: D 2.36, E 1.9, Y 3.25
P15: D 2.56, M 2.44, C 2.61
E13: G 1.88, V 4.1, K 2.59
G16: E 3.54, C 3.37, H 2.37
G10: Y 2.37, K 3.89, A 1.84, T 3.51
A23: R 3.3, G 2.37, P 1.79, D 2.79
S2: M 2.31, L 2.63, N 2.39
C7: Q 1.8, Y 3, N 2.08, K 2.14
L8: A 1.96, W 2.07
D1: A 2.99, H 2.19, M 2.4, K 2.07, I 2.64
M9: I 2.6, H 2.14, L 4.92, N 1.6

Variants of: B2
Assay: as above
Details: c terminus: a fixed tail appended

Protein stability index: each site, then its substitutions
K14: L 1.81, Q 2.32, P 2.62, G 2.65, R 2.21, H 2.18, E 2.63, D 3.13, S 2.46, Y 1.97, N 2.32, F 2.04, W 1.59, C 1.69, T 1.99, I 1.61, A 1.64, V 2.78, M 1.77
T11: L 2.71, H 3.49, Y 2.62, W 2.25, K 3.63, N 3.49, P 3.31, V 2.67, I 2.68, M 2.08, R 3.21, Q 3.44, S 2.36, G 3.12
D24: V 1.87, E 2.21, A 1.82, K 2.17, G 1.84, W 2.26, T 3.05, R 1.55, L 2.04, Q 2.03, H 1.81, M 1.86, F 1.75, N 2.22, I 1.99, Y 1.76, C 1.98, S 1.45, P 1.85
K19: A 2.02, H 1.8, W 1.81, V 1.63, D 2.03, R 2.02, Q 1.91, G 2.42, F 1.93, T 2.12, S 2.08, Y 2.01, L 1.8, M 2.5, N 2.1, C 1.78, E 2.09, P 2.21, I 2.06
M15: E 2.64, S 2.92, H 2.57, P 2.69, F 2.14, W 1.72, A 2.38, C 2.12, N 2.38, L 2.42, Y 2.21, V 2.39, I 2.1, K 2.38, G 2.31, R 2.21, D 2.23, T 2.05, Q 2.26
A17: V 1.76, K 2.21, D 2.1, H 2.06, I 1.84, L 1.67, T 1.78, F 1.74, E 2.07, S 2.02, W 2.11, C 2.24, Q 1.86, R 2.05, Y 1.89, N 2.08, M 2.38, P 1.97, G 1.72
E23: L 2.22, M 1.9, V 2.79, A 2.02, P 1.95, C 2.19, I 2.3, R 1.92, D 2.04, Q 1.69, Y 1.93, K 1.87, S 2, F 1.64, W 2.53, G 2, N 1.8, H 2.72, T 2.16
P12: F 2.98, W 1.94, K 3.2, E 3.02, M 2.91, S 3.2, R 3.47, V 3.07, Y 2.74, Q 3.84, T 3.26, L 2.64, A 3.44, I 3.48, N 2.82, G 3.11, D 2.92, H 3.12, C 2.16
T18: K 2.25, P 1.91, C 2.12, M 1.52, G 1.96, L 2.56, Y 1.7, Q 2.39, F 1.76, A 1.79, H 1.95, R 2.4, D 2.25, S 1.81, V 2.38, I 1.81, E 3.02, N 2.06
G16: I 1.92, F 2.14, S 2.16, H 1.34, P 1.96, L 1.81, T 1.95, M 1.56, A 1.9, W 1.8, E 2.16, N 1.67, R 2.05, C 2.06, K 1.7, Y 2.07, V 2.39, Q 2.24, D 1.92
E21: C 2.28, K 2.1, P 2.54, I 2.2, H 2.22, R 1.97, S 1.91, V 2.35, G 1.75, Q 1.98, T 1.92, L 2.06, W 2.41, M 1.93, D 2, A 1.91, F 1.95, N 1.81, Y 2.14
R22: Y 1.63, T 1.86, E 2.34, Q 1.67, N 2.51, A 1.9, G 2.47, L 1.79, W 1.71, K 2.09, F 1.85, M 1.9, D 2.18, V 2.2, P 1.87, C 2.04, I 1.93, S 1.76, H 1.95
A13: P 3.8, V 2.2, D 2.95, R 2.44, Y 1.86, G 2.38, S 2.53, Q 1.95, E 2.9, M 2.31, L 1.76, C 1.72, F 2.04, H 1.69, T 2.64, K 2.44, N 1.67, W 2.02, I 2.18
E20: F 1.72, K 1.81, T 2.13, M 2.4, A 1.94, P 1.92, H 2.78, W 2.2, Q 1.73, D 2.02, Y 2.67, R 2.48, N 1.89, C 1.87, V 1.65, I 2.04, L 2.13, S 2.11, G 2.23
